# Results reported in US7838249 (BOARD OF REGENTS OF THE UNIVERSITY OF OKLAHOMA, dated 2010).
# Experiments:
# [1] = biological target: TrkA (high-affinity NGF receptor), expressed in PC12 cells from pBI/TrkA; experiment: cell-based or functional assay
# GST-Rabex-5(135-399) = biological target: T1, GST-Rabex-5(135-399) (Bos taurus, UniProt O18973 135-399); experiment: GST pull-down, SDS-PAGE, Coomassie staining
# T1 construct: Immobilized on glutathione Sepharose-4B; also called the GEF domain itself
# T1 sequence (O18973 other isoform, or with tags, fused parts or gaps limits assumed): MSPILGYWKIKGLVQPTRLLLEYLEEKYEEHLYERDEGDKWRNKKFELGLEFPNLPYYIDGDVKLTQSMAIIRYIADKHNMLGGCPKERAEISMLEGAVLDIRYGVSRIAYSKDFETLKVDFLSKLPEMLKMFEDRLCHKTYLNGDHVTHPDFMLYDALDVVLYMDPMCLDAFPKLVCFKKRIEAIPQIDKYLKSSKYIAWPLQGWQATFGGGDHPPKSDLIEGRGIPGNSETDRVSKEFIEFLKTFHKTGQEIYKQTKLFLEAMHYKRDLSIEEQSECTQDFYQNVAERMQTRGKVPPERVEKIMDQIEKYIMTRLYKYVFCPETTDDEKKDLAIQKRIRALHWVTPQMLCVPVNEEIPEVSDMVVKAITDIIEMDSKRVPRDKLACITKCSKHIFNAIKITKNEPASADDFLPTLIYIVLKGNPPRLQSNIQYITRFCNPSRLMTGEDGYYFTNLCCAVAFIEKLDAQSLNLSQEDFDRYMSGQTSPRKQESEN
# Experimental: The final concentration of each protein was <2 μM for detection of specific binding. The resins were subsequently washed three times with phosphate-buffered saline (PBS) and resuspended in 20 μl of SDS sample buffer. The samples were subjected to 20% SDS-PAGE analysis, and the proteins were visualized by Coomassie brilliant blue staining.
# The bound proteins were analyzed by SDS-PAGE and visualized by Coomassie blue staining. […] Molecular mass standards (in kilodaltons) are indicated on the left of the panel.
# Sequence of TrkA (high-affinity NGF receptor), expressed in PC12 cells from pBI/TrkA (P35739 33-799): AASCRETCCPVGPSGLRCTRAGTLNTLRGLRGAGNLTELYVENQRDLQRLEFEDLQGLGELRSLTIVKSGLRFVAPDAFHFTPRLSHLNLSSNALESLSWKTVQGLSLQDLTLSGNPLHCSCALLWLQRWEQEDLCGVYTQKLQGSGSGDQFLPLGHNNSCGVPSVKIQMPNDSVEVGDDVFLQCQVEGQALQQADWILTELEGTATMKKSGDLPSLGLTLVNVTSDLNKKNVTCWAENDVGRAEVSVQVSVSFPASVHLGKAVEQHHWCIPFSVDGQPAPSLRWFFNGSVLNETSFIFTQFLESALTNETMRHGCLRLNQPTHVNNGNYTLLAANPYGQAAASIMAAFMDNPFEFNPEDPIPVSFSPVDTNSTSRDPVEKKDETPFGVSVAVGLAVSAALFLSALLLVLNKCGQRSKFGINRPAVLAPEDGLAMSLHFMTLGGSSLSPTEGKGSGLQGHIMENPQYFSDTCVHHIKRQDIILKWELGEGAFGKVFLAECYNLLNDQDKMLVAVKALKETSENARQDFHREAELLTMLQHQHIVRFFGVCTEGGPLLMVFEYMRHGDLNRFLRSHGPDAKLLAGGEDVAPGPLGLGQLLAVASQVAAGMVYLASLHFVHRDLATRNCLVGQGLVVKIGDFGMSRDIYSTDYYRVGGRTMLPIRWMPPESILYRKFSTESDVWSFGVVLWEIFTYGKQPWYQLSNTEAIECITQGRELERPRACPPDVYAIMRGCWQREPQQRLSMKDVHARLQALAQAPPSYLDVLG
NGF-mediated neurite outgrowth (percentage of differentiated PC12 cells) [1],binding result (GST-Rabex-5(135-399)),Molecule
20%,,Myc-tagged RabGAP5-C (residues 441-749) (from UniProt F1LQU9 454-763)
,no binding,6-His-Rabaptin-5(551-862) (other) HHHHHHAETRDQVKKLQLMLRQANDQLEKTMKDKQELEDFIKQSSEDSSHQISALVLRAQASEILLEELQQGLSQAKRDVQEQMAVLMQSREQVSEELVRLQKDNDSLQGKHSLHVSLQQAEDFILPDTTEALRELVLKYREDIINVRTAADHVEEKLKAEILFLKEQIQAEQCLKENLEETLQLEIENCKEEIASISSLKAELERIKVEKGQLESTLREKSQQLESLQEIKISLEEQLKKETAAKATVEQLMFEEKNKAQRLQTELDVSEQVQRDFVKLSQTLQVQLERIRQADSLERIRAILNDTKLTDINQLPET
,no binding,"6-His-Rabaptin-5(551-661) (other, Purified from E. coli BL21(DE3)) HHHHHHAETRDQVKKLQLMLRQANDQLEKTMKDKQELEDFIKQSSEDSSHQISALVLRAQASEILLEELQQGLSQAKRDVQEQMAVLMQSREQVSEELVRLQKDNDSLQGKHSLHVS"
